Results as given in the DeepSol protein solubility set.

Test: soluble on expression in E. coli; label from the status in PepcDB or PDB records

Row | Sequence | soluble on expression in E. coli
1 | MDKILGIKFRDYGQVYYFLAGEAEVSLGDRVIVETDQGQGIGEVIAVRDDRPSDAGDEELQPILRVAEGEDLERAETNEAMGAEAAAYCRECIRARNLDMKLVDVEVFFDLSKLIFYFTAPSRIDFRELVKDLVKHYRTRIELRQIGVRHETQMIGAVGNCGMVCCCRRYLRKFAPVTIKMAKEQNLFLNPAKISGICGRLLCCLSYEQENYEEFHRSCPRLGKKYMTNRGPVKVLRANMFRNSLMAFTDTGEEIEISLDEWQQLDPRRPDQQPQQARPPRRDRPEGGSARDGNGDRAPAPSSDRAAGATGGEAARHGGGRAGERSDRGGRPDRAERADRRGMPHGDVPGSGETPPAGGEAEADAPSLHAAGVEFATEQPAPFDTSPDGGAVMGMEQVEALEHHHHHH | not soluble
2 | MGSDKIHHHHHHMHRAGDSCTRDRRSRTAWRAALFQPVRRQRPVSEQCVRCCSSNEQWLDVCRYGSGAQGVGGVRHGNCLSPFTFISRLRRSGMTTDTFGGDLPASTLVPQPSFCVQTRVAHDADEQARNLHGWSQTYDQLTAGCFVGGLTELCLDHMQLFVETTSHTLRQTCEVQKDAYWFGIPACAAGSGRIDAQVIAGDALAFRPGGIEFELLTSAGYEIFGVVVKGEVLRRYAAQVERVGLADPVPNTQVVPIGMARKAQLCATLRQLLDDGAARGTPLSSVARNNLQAAVLASLFDVGALPASEPVAMPARPRRQSIVSEARDYVLLNRDRAVSVPELCEQLHVSRRTLQYCFQDVLGMAPATYLRAIRLNGARRDLSNASRESRSVQDVAAAWGFWHLSQFATDYRKLFGMRPSETLKAATGTRVERAGAFNAVALAHH | not soluble
3 | MAAPKLGFFEKIANLTGALYRHQHAQFPRRFAILKAVGKHELAPPRQADWPAIKADWAKVQSFIQTGGYKNLSIREGLVYTAVTLEVVFWFFVGEMIGRRYIFGYLVPADYVSKSTKKTVKEQEALAALEN | not soluble
4 | MNTSEHEREHDHVIEVTDLRRVYGGDFEAVRGITFSVERGELFALLGTNGAGKTSTVELLEGLAAPSGGRVRVLGHDPYEERAAVRPRTGVMLQEGGFPSELTVAETVRMWAGCTSGARPVGEALSLVGLERRPDVRVKQLSGGERRRLDLALALLGRPEVLFLDEPTTGLDAEGRQETWELVRELRDGGTTVLLTTHYLEEAEGLADRLAILHEGRIATAGTPAEVTAAQPSRISFDLPDGYFLGDLPPLADLGVSTHETTGRTVRLRTHELQRTATALLLWAQRAQVELRGLDVRSASLEEAFLRIAREAAGDRPGRPGRTDVSGTTASGKEAVALEHHHHHH | soluble
5 | GPLGSMKLRVENPKKAQKHFVQNLNNVVFTNKELEDIYNLSNKEETKEVLKLFKLKVNQFYRHAFGIVNDYNGLLEYKEIFNMMFLKLSVVFDTQRKEANNVEQIKRNIAILDEIMAKADNDLSYFISQNKNFQELWDKAVKLTKEMKIKLKGQKLDLRDGEVAINKVRELFGSDKNVKELWWFRSLLVKGVYLIKRYYEGDIELATTSDFAKAVFE | soluble
6 | VFNSDAPLETTIKGMKTVMLGYDCRMSQQSPAYLERIVKDVKKYKKEDTLVIVNMHWGVEYRETPTNYQTQFGHAILDAGADIIMGAHPHRLESIEKYKDKYIVYSMGDFAFGADPTLLSRMTSMFQLRFTKEA | not soluble
7 | MTDQLRLMAVHAHPDDESSKGAATMAKYVSEGVDVLVVTCTGGERGSILNPKLQGDAYIEENIHEVRRKEMDEAREILGVGQEWLGFVDSGLPEGDPLPPLPEGCFALEDVDKAAGELVRKIRSFRPQVITTYDENGGYPHPDHIMTHKITMVAFEGAADTEKYPESEYGTAYQPLKVYYNQGFNRPRTEALHHALLDRGLESPYEDWLKRWSEFERKERTLTTHVPCADFFEIRDKALIAHATQIDPEGGWFRVPMEIQKEVWPTEEYELAKSLVETSLPEDDLFAGIRDNALEHHHHHH | not soluble
8 | GPGSMFYKIVLQRTVNVKPADLCNTLNRSLLTFLREAVEGKPLPSPDSIASIALDYVTASKSSAVVIAVLDILNAETLQGKVLDDGSVSFRLTYEAMVLKLHRGEVLDLLVSDVDETGFWASVYGVNKLFVNRNQMGEDMKTGKSEWSFEAETAAWVSNDDRRSIKKDTMVRLRVIAETPQSERGMAVGTIGAPFLGPRVGSY | not soluble
9 | MKVIAFVGKHNVGKTTLIERLIPKLKEKGYRVCYLKHDPKGHGVTDKEGSDTHRISKLVEKLALLSPNRVTYWEWGEFKPLEIVKRFFSDCDIVILEGFKWEEEIPKISVGKVDAKNVILTVDRETPLEDIIKVIESLEDMV | soluble
10 | MISKRNTPQRRHAILALLSEQGEVSVDALAKRFSTSEVTIRKDLAAMESHGLLLRRYGGAVPMPQELIGEAAQPVSPYKQAIGRAAAARIREHARIIIDSGSTTAAMIPELGHKPGLVVMTNSLNVVNALRELEHEPVLLMTGGTWDPHSESFQGQVAEQVLRSYDFDQLFIGADGIDLERGTTTFNELLGLSRVMAEVAREVIVMAEADKVGRRIPNQELPWSSIHTLITDERLESSAREQITARGVTLICTPVEALEHHHHHH | not soluble
11 | MTGDHIKVIYFNGRGRAESIRMTLVAAGVNYEDERISFQDWPKIKPTIPGGRLPAVKITDNHGHVKWMVESLAIARYMAKKHHMMGGTEEEYYNVEKLIGQAEDLEHEYYKTLMKPEEEKQKIIKEILNGKVPVLLDIICESLKASTGKLAVGDKVTLADLVLIAVIDHVTDLDKEFLTGKYPEIHKHRENLLASSPRLAKYLSDRAATPF | soluble
12 | RWETHVYRAVKDLLVGLGFTEVLQLVLTSPRLVEAAGFSSMAVEVLNPVQQEYSVLRPTLLITLLQTLRENQHRRKPVKVFEAGNAVYLEDGEPRDEEKLALGVLDEEAGFEDVQAPLYAVLRIMGVDFEVEEASHPMFMEGRTAAVKVGGERLGYIGEVKPEVLEAFGLEYPVAAAEISLEVLARWTS | soluble
13 | MGSDKIHHHHHHMGVSKRTVMRYQTCREPGSLSASDKFKSVEAALESHVKEEEARYSGKGRGDGSLWHHLVRVARLAEKLGRSEGLDPATCRLAGLFHDAGKFSGGTYHQDDRPEEERSVDILVELAGKHDLDRDIVDRIARSFQQLYRDGENQTPLTRVLFDADNLDKLGFLGIANYFIKTGLRGKGVSANMLYQLTAELTYARHAADCMATPAGRELALRKAPETYRFILDLLQSLRDDGIFDFKVEEVMFDQLLLDVVSPYSCECRGTLERRLWNVRGIKCLEIHLEHSCPRCEARHEIRFCTPKLRTQGEKNTGDLFRTSQLDIRQAADSYF | not soluble
14 | SAQAQRVQDAIQHWESHHPKEVAARSTRLAELKQALAEQGAVVRTLQPKVTTTSPQAMLKQAMPALQKMETYACTDGLTFVGKHSSHRRQVEERLDSFGGSQSRKAANKQANDMSNMAAIAAKRGNVSLNQLKSIAACVAQAQAGCCTTFAYSAAAELMKHNQDNQQRIEVVAHRGAKGHSQTHCFVVVGRDPNSELSKPETWGKQAHVIDPWAATIGGRLQGTPSNPPIANLWPPTESV | not soluble
15 | MSLAKRIVPCLDVHAGRVVKGVNFVNLRDAGDPVEAARAYDEAGADELVFLDISATHEERAILLDVVARVAERVFIPLTVGGGVRSLEDARKLLLSGADKVSVNSAAVRRPELIRELADHFGAQAVVLAIDARWRGDFPEVHVAGGRVPTGLHAVEWAVKGVELGAGEILLTSMDRDGTKEGYDLRLTRMVAEAVGVPVIASGGAGRMEHFLEAFQAGAEAALAASVFHFGEIPIPKLKRYLAEKGVHVRLD | soluble
16 | MVLILNGPNLNLLGRREPEVYGRTTLEELEALCEAWGAELGLGVVFRQTNYEGQLIEWVQQAHQEGFLAIVLNPGALTHYSYALLDAIRAQPLPVVEVHLTNLHAREEFRRHSVTAPACRGIVSGFGPLSYKLALVYLAETLEVGGEGF | soluble
17 | GPGSMTERLSLSRDRINVLLLEGISQTAVEYFKSSGYTNVTHLPKALDKADLIKAISSAHIIGIRSRTQLTEEIFAAANRLIAVGCFSVGTNQVELKAARKRGIPVFNAPFSNTRSVAELVIGEIIMLMRRIFPRSVSAHAGGWEKTAIGSREVRGKTLGIVGYGNIGSQVGNLAESLGMTVRYYDTSDKLQYGNVKPAASLDELLKTSDVVSLHVPSSKSTSKLITEAKLRKMKKGAFLINNARGSDVDLEALAKVLQEGHLAGAAIDVFPVEPASNGERFSTPLQGLENVILTPHIGGSTEEAQERIGTEVTRKLVEYSDVGSTVGAVNFPQVQLPPRPTGTRFMHVHENRPGILNSLMNVFSHHHINIASQFLQTDGEVGYLVMEADGVGEASDAVLQEIREIPGTIRARLLY | soluble
18 | MGSDKIHHHHHHMARSHRLFELMQALRRHRRTVSGASLAQELGVSLRTIRRDVATLQGMGADIDGEPGLGYILKPGFLLPPLSFTEEELQALMIGAQWVSRQTDDKFAFAVRNALAKISAVLPVEMRPTLEDETFYISKPLSVSTTIDLSEIRRALRDQCKLSITLAIEHAPKDAQIIWPIMLGFIEARRHLAAWCEGDSQYRVIDMDDIADAHVLTERYTRNRRQLIKEWRALEVLPCNVRGETC | not soluble
19 | GAMAEEATFTANFKDTDLKSFIETVGANLNKTIIMGPGVQGAVSIRTMTPLNERQYYQLFLNLLEAQGYAVVPMENDVLKVVKSSAAKVEPLPLVGEGSDNYAGDEMVTKVVPVRNVSVRELAPILRQMIDSAGSGNVVNYDPSNVIMLTGRASVVERLTEVIQRVDHAGNRTEEVIPLDNASASEIARVLESLTKNSGENQPATLKSQIVADERTNSVIVSGDPATRDKMRRLIRRLDSE | soluble
20 | MARMLTAADVEAAGGKLILAAGDRLTPLARDRARELGIVVEAAGLSSGVSTPSASPTSTSAPVVKSPLAAPAPAPVPAARPATPVAPPAATGSRPLALPPSGALYRRNALGPSAQSSRAVDGRPKAGVVGAGHVGAMTALRLAESDLFSEVALVDVVPGLAAGLALDMWHGAGLYGFSTRLSGSDDLVALAGAEYIVITAGKPRQPGMSRTDLTVVNAEIMTSVCRGIRTHAPNSTLVIVSNPLEEMTHLAAQQTGFPEERVLGMAGVLDSARFCALVGLTGKARPQEVRAVALGSHGPEMVIPLSQAFVGDRPIESMFDAETLKALVERARESGGEVVKLLQKGSAYFSPAESAVTMVRAMVRDSGEVIAACVRSRGAYGAVDTRVGLPVRLHRRGLKEIVPLTLRPAEQQALQDAAARIAARIAELPAPC | not soluble
21 | MGARCSKLSVCWWPPHFKSPLLENGAAADDGSGVPVFAEYSLDELRVATDGFSPERIVSEHGEKAPNVVYRGTLFSTGRTVAIKRFGRSAWPDSRQFLEEAMAVGQLRSVRLANLIGCCCENGERLLVAEFMPHETLAKHLFHWETKPLSWAMRVRAAFYVAQALEYCSSKGRALYHDLHAYRVLFDVDGNPRLSCFGLMKNSRDGKSYSTNLAFTPPEYLKTGRVIPESVVYSFGTILLDLLSGKHIPPSHALDLIRGKNYLVLMDSCLEGHVSSSDGTELIRLASRCLQYEGRDRPNLKSVVSALGNLQKDASAPSHALLGIQHDKENTERISLSAIAKVYARADLDEVHEMLENDGYCEDERATFEVSFHSWTGQQVSDSILVKKHGDSAFQSKDFATAVECYSRFIDTGVMVSPTMLARRSFVYMVLGKLQEGLADAKKAADISPEWPTAHYLQGMAYLAMGMEPEGHEELKQGAALEAERNAR | soluble
22 | IREAIARNPQEIFQYVRLSQVKRDDKVLGYRVSPGKDPVLFESIGLQDGDMAVALNGLDLTDPNVMNTLFQSMNEMTEMSLTVERDGQQHDVYIQF | not soluble
23 | MQADPAIRRFAKKRNKRVDRMILDSNYMHTSIDRYFPNESKRRGRPDIIYLLLEMTQESILNHKNQLRTYVHTRNNQVIRISPITRMPKSYNRFIGLFEDLFEKRIITNNGKELLSMEESSLGDLINSIRRDRTILLHPKGEMRKPSEFISNANILIVIGGFSEGDFISDTSFINERYAIFDQELTIWSVANEMVANYERAVGLT | not soluble
